{"source": "patent US20210177983A1", "molecular_target": "TNF-α (UniProt P01375)", "sequence (P01375 77-233 limits assumed)": "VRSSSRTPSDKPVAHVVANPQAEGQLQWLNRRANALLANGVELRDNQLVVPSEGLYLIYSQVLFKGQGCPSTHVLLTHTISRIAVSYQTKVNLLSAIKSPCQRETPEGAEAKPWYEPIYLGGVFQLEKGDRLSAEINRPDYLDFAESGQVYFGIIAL", "experiment": "cell-based or functional assay"}
{"substance": "TNF-R2 scCLCH1-Fc (Fc fusion)", "values": [{"measurement": "IC50 of inhibition of activation of the SEAP reporter gene in HEK-Blue TNF-α cells (235 pM TNF-α)", "value": 51, "unit": "pM"}]}
